Literature values as cited in patent publication US20260125483A1, “COMPOSITIONS OF IL-6/IL-6R ANTIBODIES AND METHODS OF USE THEREOF” (Tiziana Life Sciences PLC, priority 2020, published 2026).

B1: 39B9 VL1: IL-6R antibody, heavy chain variable region SEQ ID NO:2, light chain variable region SEQ ID NO: 4 (antibody, V domains shown)
VH: QVQLVQSGAEVKKPGSSVKVSCKASGGTFSSYAISWVRQAPGQGLEWMGGIIPLFDTTKYAQQFQGRVTITADESTSTAYMELSSLRSEDTAVFYCARDRDILTDYYPMGGMDVWGQGTTVTVSS
VL: AIQLTQSPSSLSASVGDRVTITCRASQGISSVLAWYQQKPGKAPKLLIYDASSLESGVPSRFSGSGSGTDFTLTISSLQPEDFATYYCQQSNSYPLTFGGGTKVEIKR
modifications: 3B9 VL1-VH amino acid sequence; 39B9 VL1-VL amino acid sequence
B2: 12A: IL-6R antibody, heavy chain variable region SEQ ID NO:8, light chain variable region SEQ ID NO: 10 (antibody, V domains shown)
VH: QVQLVESWGGVVQPGRSLRLSCAASGFTFSNYDMYWVRQAPGKGLEWVAVILDDGNNNYYADSVKGRFTISRDNSKKKVYLQMNSLRAEDTAVYYCVRASPNWGLLDFWGQGTLVTVSS
VL: EIVLTQSPSSLSASVGDRVTITCRASQGISSWLAWYQQKPGKAPKLLIYDASSLESGVPSRFSGSGSGTDFTLTISSLQPEDFATYYCQQFNSYPITFGQGTRLEIKR
modifications: 12A VH amino acid sequence; 12A VL amino acid sequence
B3: 39B9 VL5: IL-6R antibody, heavy chain variable region SEQ ID NO:2, light chain variable region SEQ ID NO: 6 (antibody, V domains shown)
VH: QVQLVQSGAEVKKPGSSVKVSCKASGGTFSSYAISWVRQAPGQGLEWMGGIIPLFDTTKYAQQFQGRVTITADESTSTAYMELSSLRSEDTAVFYCARDRDILTDYYPMGGMDVWGQGTTVTVSS
VL: DILMTQSPSSLSASVGDRVTITCRASQDISSWLAWYQQKPGKAPKLLIYDASSLESGVPSRFSGSGSGTDFTLTISSLQPEDFATYYCQQSNSYPLTFGGGTKVEIKR
modifications: 3B9 VL1-VH amino acid sequence; 39B9 VL5-VL amino acid sequence
B4: 5C: IL-6R antibody, heavy chain variable region SEQ ID NO: 12, light chain variable region SEQ ID NO: 14 (antibody, V domains shown)
VH: QVQLVQSGGGVVQPGRSLRLSCAASGFIFSSYDMYWVRQAPGKGLEWVAVILYDGNNKYYADSVKGRFTISRDNSKNTVYLQMNSLRAEDTAVYYCVRASPNWGLFDFWGQGTLVTVSS
VL: DIQMTQSPSSLSASVGDRVTITCRASQGISSDLAWYQQKPGKAPKLLMYDASSLESGVPSRFSGSGSGTDFTLTISSLQPEDFATYYCQQFNSYPITFGQGTRLEIKR
modifications: 5C VH amino acid sequence; 5C VL amino acid sequence

Target: IL-6Rc (Homo sapiens, UniProt P05231+P08887)
Conditions: binding to gp130 to induce the signaling cascade; WO/2009/140348

Sequence of IL-6Rc (P08887 20-468): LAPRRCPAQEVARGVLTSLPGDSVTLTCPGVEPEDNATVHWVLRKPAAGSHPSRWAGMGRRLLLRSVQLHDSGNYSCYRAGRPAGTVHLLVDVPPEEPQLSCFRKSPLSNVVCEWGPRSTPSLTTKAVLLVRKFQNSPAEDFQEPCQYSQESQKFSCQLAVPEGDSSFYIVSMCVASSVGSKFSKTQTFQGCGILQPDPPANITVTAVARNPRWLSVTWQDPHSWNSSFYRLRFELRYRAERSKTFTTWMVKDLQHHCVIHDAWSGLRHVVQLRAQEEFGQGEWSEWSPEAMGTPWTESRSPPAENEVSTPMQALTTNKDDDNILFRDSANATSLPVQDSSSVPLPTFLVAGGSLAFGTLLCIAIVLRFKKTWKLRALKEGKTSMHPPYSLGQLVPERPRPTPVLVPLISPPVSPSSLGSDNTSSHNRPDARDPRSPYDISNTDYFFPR
Sequence of IL-6Rc (P05231 30-212): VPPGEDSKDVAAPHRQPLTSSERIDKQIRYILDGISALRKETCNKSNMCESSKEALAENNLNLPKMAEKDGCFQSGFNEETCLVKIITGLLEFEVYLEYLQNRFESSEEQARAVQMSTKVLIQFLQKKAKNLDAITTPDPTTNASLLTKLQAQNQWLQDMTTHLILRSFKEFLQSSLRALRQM

Molecule | functional activity of IL-6Rc in vitro
B1 | inhibit the functional activity of IL-6Rc
B2 | inhibit the functional activity of IL-6Rc
B3 | inhibit the functional activity of IL-6Rc
B4 | inhibit the functional activity of IL-6Rc
